Biological target: RepSTK1(1-269), residues 1-269 of the rolling-circle replication initiator protein RepSTK1 of plasmid pSTK1 (Geobacillus stearothermophilus (plasmid pSTK1))
Assay: SEC-MALS; analytical gel filtration on Superdex S75 10/300, 50 µl protein loaded, 50 mM Tris-HCl pH 7.5, 500 mM KCl; eluate through DAWN HELIOS II MALLS detector; dimer

- stoichiometry N: 2
Substance: RepSTK1(1-269), residues 1-269 of the rolling-circle replication initiator protein RepSTK1 of plasmid pSTK1 (domain or fragment)

— paper PMC3792671
